Assay results: PMC4881898, “CD14 Is a Co-Receptor for TLR4 in the S100A9-Induced Pro-Inflammatory Response in Monocytes” (PLoS ONE, 2016)

Target: T1, recombinant human CD14 (human, UniProt P08571 20-345)
T1 construct: CD14, human, recombinant soluble protein from CHO cells; Check this against the vendor data sheet; source: bought: R&D Systems (cat no 383-CD-050/CF), derived from CHO cells
T1 sequence (looked up): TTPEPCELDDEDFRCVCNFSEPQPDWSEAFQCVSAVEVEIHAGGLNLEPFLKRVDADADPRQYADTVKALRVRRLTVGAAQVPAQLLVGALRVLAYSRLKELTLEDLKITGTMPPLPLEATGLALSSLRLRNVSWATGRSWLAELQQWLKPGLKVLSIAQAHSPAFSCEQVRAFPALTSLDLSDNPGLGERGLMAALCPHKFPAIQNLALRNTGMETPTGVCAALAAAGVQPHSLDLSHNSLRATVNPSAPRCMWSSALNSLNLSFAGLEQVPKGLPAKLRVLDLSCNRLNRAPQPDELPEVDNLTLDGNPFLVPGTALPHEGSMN
Test: SPR; Biacore 3000; S100A8 and S100A9 immobilised in separate flow cells on a CM5 chip by amine coupling, to the same level; CD14 injected at 50 to 800 nM for 2 min at 30 ul/min in HBS-P (10 mM HEPES, 0.15 M NaCl, pH 7.4, 0.005% P20) with 1 mM Ca2+ and 20 uM Zn2+; regeneration with 3 mM EDTA; sensorgrams fit to a 1:1 model
Settings: both partners purified

Kd: 100 to 200 nM
B1: recombinant human S100A9 (natural protein, UniProt P06702 1-114, looked up)
chain: MTCKMSQLERNIETIINTFHQYSVKLGHPDTLNQGEFKELVRKDLQNFLKKENKNEKVIEHIMEDLDTNADKQLSFEEFIMLMARLTWASHEKMHEGDEGPGHHHKPGLGEGTP
notes: S100A9, human, recombinant; The discussion says the recombinant huS100A9 was produced in E. coli; Amine-coupled to the CM5 chip in the SPR experiment; also called huS100A9; source: recombinant, produced at Active Biotech AB, Lund, Sweden
